Experimental data published in patent publication US20260167710A1 (GlaxoSmithKline, published 2026).

What was measured:
human IL-33 [1] = target: T1, human IL-33 (human, Biotinylated in Example 2; the site is not stated.); assay: cell-based or functional assay
T1 chain: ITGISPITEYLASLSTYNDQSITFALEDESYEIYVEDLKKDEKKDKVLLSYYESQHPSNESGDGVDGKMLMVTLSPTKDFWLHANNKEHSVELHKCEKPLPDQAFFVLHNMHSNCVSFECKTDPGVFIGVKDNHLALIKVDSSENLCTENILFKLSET

human IL-33 [2] = target: T1, human IL-33; assay: cell-based or functional assay
cynomolgus IL-33 = target: T2, cynomolgus IL-33 (cynomolgus monkey, UniProt A0A2K5W3I1 112-269); assay: MSD-SET solution equilibrium titration, 37 C
T2 construct: also called cyno IL-33; cynomolgus monkey IL-33
T2 sequence: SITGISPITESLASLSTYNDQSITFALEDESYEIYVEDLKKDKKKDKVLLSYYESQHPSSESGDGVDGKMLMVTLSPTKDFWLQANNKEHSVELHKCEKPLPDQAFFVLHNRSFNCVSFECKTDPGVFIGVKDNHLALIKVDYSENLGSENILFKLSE

human IL-33 [3] = target: T1, human IL-33; assay: MSD-SET solution equilibrium titration, 37 C
[4] = target: T3, cynomolgus recombinant neonatal receptor (FcRn) (cynomolgus monkey, UniProt Q8SPV9 24-297; Q8SPW0 21-119); assay: SPR (ProteOn XPR36), antibody captured by protein L, FcRn as analyte, equilibrium fit, pH 6.0, 25 C
T3 construct: extracellular domain; beta-2-microglobulin is not mentioned; also called cyno FcRn; cynomolgus monkey FcRn
T3 sequence (Q8SPV9 24-297 limits assumed, chain 1 of 2): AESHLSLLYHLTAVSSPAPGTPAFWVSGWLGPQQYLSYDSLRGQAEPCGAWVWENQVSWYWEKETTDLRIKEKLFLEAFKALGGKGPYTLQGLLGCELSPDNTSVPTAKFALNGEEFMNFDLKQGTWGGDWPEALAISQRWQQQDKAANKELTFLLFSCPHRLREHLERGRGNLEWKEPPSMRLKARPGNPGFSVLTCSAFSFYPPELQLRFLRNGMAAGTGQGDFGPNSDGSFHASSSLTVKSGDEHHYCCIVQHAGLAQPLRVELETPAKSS
T3 sequence (Q8SPW0 21-119 limits assumed, chain 2 of 2): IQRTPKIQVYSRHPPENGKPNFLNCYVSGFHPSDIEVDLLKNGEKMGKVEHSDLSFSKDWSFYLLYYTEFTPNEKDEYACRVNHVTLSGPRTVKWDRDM

[5] = target: T4, human recombinant neonatal receptor (FcRn) (human, UniProt P55899 24-297; P61769 21-119); assay: as above
T4 construct: also called human FcRn; human recombinant soluble FcRn
T4 sequence (P55899 24-297 limits assumed, chain 1 of 2): as the sequence (Q8SPV9 24-297 limits assumed, chain 1 of 2) above, with D39N, Q44E, S99G, G189S, N190S, M217L, T269S counted along it
T4 sequence (P61769 21-119 limits assumed, chain 2 of 2): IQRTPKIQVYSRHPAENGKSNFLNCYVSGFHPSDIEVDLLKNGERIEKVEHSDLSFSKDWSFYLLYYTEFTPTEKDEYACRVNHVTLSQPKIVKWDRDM

human IL-33 [6] = target: T1, human IL-33; assay: cell-based or functional assay

B1: 22A06-458 (antibody, human IgG1, kappa)
heavy: QVQLVQSGAEVKKPGASVKVSCKASGYTFISYGMHWVRQAPGQGLEWMGEINPHGGSTSYAQKFKGRVTMTRDTSTSTVYMELSSLRSEDTAVYYCARPSAAYSHYLGIDLWGRGTLVTVSSASTKGPSVFPLAPSSKSTSGGTAALGCLVKDYFPEPVTVSWNSGALTSGVHTFPAVLQSSGLYSLSSVVTVPSSSLGTQTYICNVNHKPSNTKVDKKVEPKSCDKTHTCPPCPAPELLGGPSVFLFPPKPKDTLYITREPEVTCVVVDVSHEDPEVKFNWYVDGVEVHNAKTKPREEQYNSTYRVVSVLTVLHQDWLNGKEYKCKVSNKALPAPIEKTISKAKGQPREPQVYTLPPSRDELTKNQVSLTCLVKGFYPSDIAVEWESNGQPENNYKTTPPVLDSDGSFFLYSKLTVDKSRWQQGNVFSCSVMHEALHNHYTQKSLSLSPGK
light: DIQMTQSPSSVSASVGDRVTITCRASQGISSWLAWYQQKPGKAPKLLIYAASRLQSGVPSRFSGSGSGTDFTLTISSLQPEDFATYYCQQANVFPLTFGGGTKVEIKRTVAAPSVFIFPPSDEQLKSGTASVVCLLNNFYPREAKVQWKVDNALQSGNSQESVTEQDSKDSTYSLSSTLTLSKADYEKHKVYACEVTHQGLSSPVTKSFNRGEC
Q: How did the “pIC50, inhibition of IL-33 (125 pM) induced IFN-γ secretion from CD4+ T cells, pre-complexed, N = 2” value (human IL-33 [1]) turn out when B1 was run?
A: 9.02

Q: What about the “pIC50, inhibition of IL-33 (125 pM) induced IFN-γ secretion from CD4+ T cells, pre-complexed, N = 3” value (human IL-33 [1]) of the same binder?
A: 9.54

Q: And the “pIC50, inhibition of IL-33 (125 pM) induced IFN-γ secretion from CD4+ T cells, pre-complexed, N = 4” value (human IL-33 [1])?
A: 9.22

Q: What about the “pIC50, inhibition of IL-33 (125 pM) induced IFN-γ secretion from CD4+ T cells, pre-complexed, N = 5” value (human IL-33 [1]) of the same binder?
A: 9.1

Q: And the “pIC50, inhibition of IL-33 (125 pM) induced IFN-γ secretion from CD4+ T cells, pre-complexed, N = 6” value (human IL-33 [1])?
A: 9.3

Q: And the “pIC50, inhibition of IL-33 (125 pM) induced IFN-γ secretion from CD4+ T cells, pre-complexed, N = 7” value (human IL-33 [1])?
A: 9.24

Q: And the “IC50, inhibition of IL-33 (15 pM) induced superoxide generation from eosinophils, pre-complexed, Mean” value (human IL-33 [2])?
A: 19.6 pM

Q: And the “IC50, inhibition of IL-33 (15 pM) induced superoxide generation from eosinophils, pre-complexed, N = 1” value (human IL-33 [2])?
A: 21.9 pM

Q: And the “IC50, inhibition of IL-33 (15 pM) induced superoxide generation from eosinophils, pre-complexed, N = 2” value (human IL-33 [2])?
A: 23.5 pM

Q: What about the “IC50, inhibition of IL-33 (15 pM) induced superoxide generation from eosinophils, pre-complexed, N = 3” value (human IL-33 [2]) of the same binder?
A: 16.5 pM

Q: And the “IC50, inhibition of IL-33 (15 pM) induced superoxide generation from eosinophils, pre-complexed, N = 4” value (human IL-33 [2])?
A: 25.6 pM

Q: What about the “IC50, inhibition of IL-33 (15 pM) induced superoxide generation from eosinophils, pre-complexed, N = 5” value (human IL-33 [2]) of the same binder?
A: 14.8 pM

Q: What about the “IC50, inhibition of IL-33 (15 pM) induced superoxide generation from eosinophils, pre-complexed, N = 6” value (human IL-33 [2]) of the same binder?
A: 10.5 pM

Q: What about the “IC50, inhibition of IL-33 (15 pM) induced superoxide generation from eosinophils, pre-complexed, N = 7” value (human IL-33 [2]) of the same binder?
A: 24.8 pM

Q: What about the “pIC50, inhibition of IL-33 (15 pM) induced superoxide generation from eosinophils, pre-complexed, Mean” value (human IL-33 [2]) of the same binder?
A: 10.7

Q: And the “pIC50, inhibition of IL-33 (15 pM) induced superoxide generation from eosinophils, pre-complexed, N = 1” value (human IL-33 [2])?
A: 10.7

Q: And the “pIC50, inhibition of IL-33 (15 pM) induced superoxide generation from eosinophils, pre-complexed, N = 2” value (human IL-33 [2])?
A: 10.6

Q: What about the “pIC50, inhibition of IL-33 (15 pM) induced superoxide generation from eosinophils, pre-complexed, N = 3” value (human IL-33 [2]) of the same binder?
A: 10.8

Q: And the “pIC50, inhibition of IL-33 (15 pM) induced superoxide generation from eosinophils, pre-complexed, N = 4” value (human IL-33 [2])?
A: 10.6

Q: What about the “pIC50, inhibition of IL-33 (15 pM) induced superoxide generation from eosinophils, pre-complexed, N = 5” value (human IL-33 [2]) of the same binder?
A: 10.8

Q: And the “pIC50, inhibition of IL-33 (15 pM) induced superoxide generation from eosinophils, pre-complexed, N = 6” value (human IL-33 [2])?
A: 11

Q: What about the “pIC50, inhibition of IL-33 (15 pM) induced superoxide generation from eosinophils, pre-complexed, N = 7” value (human IL-33 [2]) of the same binder?
A: 10.6

Q: What about the Kd (cynomolgus IL-33) of the same binder?
A: 0.0565 nM

Q: And the Kd (human IL-33 [3])?
A: 0.0135 nM

Q: And the Kd [4]?
A: 24.7 nM

Q: And the Kd [5]?
A: 25 nM

Q: What about the “IC50, inhibition of 30 ng/mL IL-33/IL-12 induced IFN-γ secretion from whole blood, pre-complexed, Mean” value (human IL-33 [6]) of the same binder?
A: 3.24 nM

Q: What about the “IC50, inhibition of 30 ng/mL IL-33/IL-12 induced IFN-γ secretion from whole blood, pre-complexed, donor #91232” value (human IL-33 [6]) of the same binder?
A: 1.47 nM

Q: What about the “IC50, inhibition of 30 ng/mL IL-33/IL-12 induced IFN-γ secretion from whole blood, pre-complexed, donor #91845” value (human IL-33 [6]) of the same binder?
A: 3.88 nM

Q: What about the “IC50, inhibition of 30 ng/mL IL-33/IL-12 induced IFN-γ secretion from whole blood, pre-complexed, donor #92023” value (human IL-33 [6]) of the same binder?
A: 2.48 nM

Q: And the “IC50, inhibition of 30 ng/mL IL-33/IL-12 induced IFN-γ secretion from whole blood, pre-complexed, donor #92187” value (human IL-33 [6])?
A: 4.92 nM

Q: What about the “IC50, inhibition of 30 ng/mL IL-33/IL-12 induced IFN-γ secretion from whole blood, pre-complexed, donor #92257” value (human IL-33 [6]) of the same binder?
A: 1.75 nM

Q: And the “IC50, inhibition of 30 ng/mL IL-33/IL-12 induced IFN-γ secretion from whole blood, pre-complexed, donor #92258” value (human IL-33 [6])?
A: 4.93 nM

Q: What about the “pIC50, inhibition of 30 ng/mL IL-33/IL-12 induced IFN-γ secretion from whole blood, pre-complexed, Mean” value (human IL-33 [6]) of the same binder?
A: 8.53

Q: And the “pIC50, inhibition of 30 ng/mL IL-33/IL-12 induced IFN-γ secretion from whole blood, pre-complexed, donor #91232” value (human IL-33 [6])?
A: 8.83

Q: And the “pIC50, inhibition of 30 ng/mL IL-33/IL-12 induced IFN-γ secretion from whole blood, pre-complexed, donor #91845” value (human IL-33 [6])?
A: 8.41

Q: And the “pIC50, inhibition of 30 ng/mL IL-33/IL-12 induced IFN-γ secretion from whole blood, pre-complexed, donor #92023” value (human IL-33 [6])?
A: 8.6

Q: What about the “pIC50, inhibition of 30 ng/mL IL-33/IL-12 induced IFN-γ secretion from whole blood, pre-complexed, donor #92187” value (human IL-33 [6]) of the same binder?
A: 8.3

Q: And the “pIC50, inhibition of 30 ng/mL IL-33/IL-12 induced IFN-γ secretion from whole blood, pre-complexed, donor #92257” value (human IL-33 [6])?
A: 8.75

Q: What about the “pIC50, inhibition of 30 ng/mL IL-33/IL-12 induced IFN-γ secretion from whole blood, pre-complexed, donor #92258” value (human IL-33 [6]) of the same binder?
A: 8.3
